Measured values from US20090075291A1, “PEPTIDE-BASED REGULATION OF GAP JUNCTIONS” (The Research Foundation of State University of New York, priority 2006, published 2009).

Target: Recombinant Cx43CT (carboxyl terminal domain of rat connexin43, residues 255-382, preceded by GPLG) (rat) (UniProt P08050)
Assay: SPR, peptide 1.0 mM

Recombinant Cx43CT (carboxyl terminal domain of rat connexin43, residues 255-382, preceded by GPLG) (rat), sequence (P08050 other isoform, or with tags, fused parts or gaps limits assumed): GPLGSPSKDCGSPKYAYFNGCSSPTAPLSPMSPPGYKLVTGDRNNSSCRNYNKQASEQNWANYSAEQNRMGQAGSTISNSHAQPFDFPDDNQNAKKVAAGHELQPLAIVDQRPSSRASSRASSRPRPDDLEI

## Peptide 2502, AcRNP-NH2
  Response Dose (arbitrary units): 4.6
